Measurements taken from patent US20200317776A1 (published 2020).
Numbering of substitutions follows the chain as printed.

T1: human TREM2 Fc fusion (entire TREM2 ECD; only one Fc arm fused to TREM2) (human, UniProt Q9NZC2 19-174)
T1 construct: also called huTREM2-Fc; recombinant hTREM2
T1 sequence: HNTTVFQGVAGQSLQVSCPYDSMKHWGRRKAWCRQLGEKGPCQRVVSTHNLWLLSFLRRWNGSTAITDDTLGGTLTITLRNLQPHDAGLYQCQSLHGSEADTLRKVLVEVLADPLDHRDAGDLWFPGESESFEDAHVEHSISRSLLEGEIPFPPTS

T2: cynomolgus monkey TREM2 Fc fusion (entire TREM2 ECD; only one Fc arm fused to TREM2) (cynomolgus monkey, UniProt Q9NZC2 19-174 (human entry))
T2 construct: also called cyno TREM2-Fc
T2 chain: T1 sequence with A10E, W60R, L89F, F125V

T3: human TREM2 expressed on cells (human, UniProt Q9NZC2 19-230)
T3 sequence: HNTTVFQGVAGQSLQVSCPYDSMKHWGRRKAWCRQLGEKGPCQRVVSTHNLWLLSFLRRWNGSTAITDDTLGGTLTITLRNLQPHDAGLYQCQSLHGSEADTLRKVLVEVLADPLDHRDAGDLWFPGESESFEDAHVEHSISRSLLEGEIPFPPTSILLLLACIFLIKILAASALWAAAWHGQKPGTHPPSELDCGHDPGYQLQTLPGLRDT

B1: AL2p-37 (antibody, IgG1, V domains shown)
VH: QVQLVQSGAEVKKPGASVKVSCKASGYAFSSQWMNWVRQAPGQRLEWIGRIYPGGGDTNYAGKFQGRVTITADTSASTAYMELSSLRSEDTAVYYCARLLRNQPGESYAMDYWGQGTLVTVSS
VL: DVVMTQSPDSLAVSLGERATINCRSSQSLVHSNGYTYLHWYQQKPGQSPKLLIYKVSNRFSGVPDRFSGSGSGTDFTLTISSLQAEDVAVYYCSQSTRVPYTFGGGTKVEIK
notes: Fab and IgG formats under one id; also called AL2p-37 huIgG1
B2: AL2p-h50 (antibody, human IgG1, V domains shown)
VH: B1 VH with A16S, Q32S, R44G, I48M, G55D, G62Q, T74E, A76T
VL: DVVMTQTPLSLSVTPGQPASISCRSSQSLVHSNGYTYLHWYLQKPGQSPQLLIYKVSNRFSGVPDRFSGSGSGTDFTLKISRVEAEDVGVYYCSQSTRVPYTFGQGTKLEIK
notes: humanized, human IgG1; Fab and IgG formats under one id
B3: AL2p-h77 (antibody, human IgG1, V domains shown)
VH: B1 VH with Q32S, G55D, G62Q
VL: B1 VL
notes: humanized, human IgG1; Fab and IgG formats under one id; also called A2p-h77
B4: AL2p-5 (antibody, V domains shown)
VH: B1 VH with A16S, Q32S, R44G, I48M, G55D, G62Q, T74E, A76T
VL: B2 VL with G34R
notes: AL2p-h50 variant; Fab and IgG formats under one id; also called AL2-5
B5: AL2p-2 (antibody, V domains shown)
VH: B1 VH with A16S, Q32S, R44G, I48M, G62Q, T74E, A76T
VL: B2 VL
notes: AL2p-h50 variant; Fab and IgG formats under one id
B6: AL2p-62 (antibody, V domains shown)
VH: B1 VH with G55E
VL: B1 VL with G34Q
notes: Fab and IgG formats under one id
B7: AL2p-59 (antibody, V domains shown)
VH: B1 VH with A16S, Q32H, R44G, I48M, G55E, D57Q, G62Q, F64R, T74E, A76T
VL: B2 VL with D1G, S25T, G34Q, F60V
notes: as for B6
B8: AL2p-3 (antibody, V domains shown)
VH: B1 VH with A16S, Q32S, R44G, I48M, G55E, G62Q, T74E, A76T
VL: B2 VL
notes: as for B5
B9: AL2p-4 (antibody, V domains shown)
VH: B1 VH with A16S, Q32S, R44G, I48M, G55Q, G62Q, T74E, A76T
VL: B2 VL
B10: AL2p-60 (antibody, IgG1, V domains shown)
VH: B1 VH with A16S, R44G, I48M, G55E, G62R, T74E, A76T
VL: B2 VL with D1G, G34Q, F60R

Biological target: T4, human TREM2/DAP12 fusion protein (human, UniProt O43914 41-113, limits assumed)
Experiment: cell-based or functional assay

T4 sequence (O43914 other isoform, or with tags, fused parts or gaps limits assumed): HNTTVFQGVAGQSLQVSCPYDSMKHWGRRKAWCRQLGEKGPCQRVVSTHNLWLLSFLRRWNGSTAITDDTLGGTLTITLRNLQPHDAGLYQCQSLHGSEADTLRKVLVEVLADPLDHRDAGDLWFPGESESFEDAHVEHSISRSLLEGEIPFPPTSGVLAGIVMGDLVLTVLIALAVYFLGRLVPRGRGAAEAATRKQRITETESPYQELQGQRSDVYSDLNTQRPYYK

| Binder | Plate bound IgG, fold over unstimulated control (25 nM IgG) | Soluble IgG, EC50 | Soluble IgG, fold over control IgG (17 nM IgG) |
| --- | --- | --- | --- |
| B1 | 1.56 fold | 9.41 nM | 7.63 fold |

Biological target: T1, human TREM2 Fc fusion (entire TREM2 …)
Experiment: BLI, Fab, monovalent

| Binder | Kd |
| --- | --- |
| B2 | 112 nM |
| B3 | 102 nM |
| B4 | 99.2 nM |
| B5 | 63.3 nM |
| B6 | 21.1 nM |
| B7 | 3.85 nM |
| B1 | 23.8 nM |

Biological target: T2, cynomolgus monkey TREM2 Fc fusion …
Experiment: BLI, Fab, monovalent

| Binder | Kd |
| --- | --- |
| B2 | 7700 nM |
| B3 | 184 nM |
| B4 | 4630 nM |
| B5 | 1400 nM |
| B8 | 4580 nM |
| B6 | 19.4 nM |
| B7 | 3.95 nM |
| B1 | 16.1 nM |

Biological target: T3, human TREM2 expressed on cells
Experiment: cell-based or functional assay

| Binder | Survival huDCs plate bound IgG, AUC |
| --- | --- |
| B2 | 337000 AUC |
| B3 | 381000 AUC |
| B4 | 710000 AUC |
| B5 | 461000 AUC |
| B8 | 363000 AUC |
| B1 | 680000 AUC |

Biological target: T4, human TREM2/DAP12 fusion protein
Experiment: cell-based or functional assay
Remark: another data set of the same source

| Binder | Luciferase activation plate bound 33 nM IgG, FOC | Luciferase activation soluble 10 nM IgG, FOC |
| --- | --- | --- |
| B2 | 6.83 FOC | 1.26 FOC |
| B3 | 6.77 FOC | 1.47 FOC |
| B4 | 9.99 FOC | 1.27 FOC |
| B5 | 7.36 FOC | 1.7 FOC |
| B8 | 6.03 FOC | 1.29 FOC |
| B9 | 7.42 FOC | 1.45 FOC |
| B1 | 9.42 FOC | 2.16 FOC |

Biological target: T4, human TREM2/DAP12 fusion protein
Experiment: cell-based or functional assay
Remark: another data set of the same source

| Binder | luciferase activation, soluble IgG, EC50 |
| --- | --- |
| B2 | 63.1 nM |
| B3 | 20.1 nM |
| B4 | 38.1 nM |
| B5 | 23 nM |
| B8 | 50 nM |
| B6 | 25.1 nM |
| B9 | 66.2 nM |
| B7 | 11.2 nM |

Biological target: T4, human TREM2/DAP12 fusion protein
Experiment: cell-based or functional assay
Remark: another data set of the same source

| Binder | Soluble luciferase activation at 10 µg/ml Fold over control |
| --- | --- |
| B2 | 6.36 fold over control |
| B3 | 7.14 fold over control |

Biological target: T1, human TREM2 Fc fusion (entire TREM2 …)
Experiment: BLI, IgG, avid
Method in brief: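 Avid format: AHQ-loaded IgGs exposed to 100 nM human or cyno TREM2-Fc antigen, 3 min association, 3 min dissociation in buffer. Monovalent format: human TREM2-Fc loaded on AHQ sensors, exposed to 100 nM Fab. Kinetics fit to 1:1 model, run at 25° C.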

| Binder | Kd |
| --- | --- |
| B2 | 1.19 nM |
| B3 | 1.17 nM |
| B5 | 0.837 nM |
| B8 | 1.19 nM |
| B1 | 0.779 nM |

Biological target: T3, human TREM2 expressed on cells
Experiment: FACS, hTREM2 BW cells
Method in brief: (§1)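 Cells were BW5147.G.1.4 stably expressing human TREM2 with Dap12, or human monocyte-derived dendritic cells differentiated 6 days with GM-CSF and IL-4. Antibodies bound 1 h on ice in PBS+2% FBS, then PE anti-human secondary 30 min on ice; flow cytometry read-out as mean fluorescence intensity.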

| Binder | Kd |
| --- | --- |
| B2 | 3.7 nM |
| B3 | 3.9 nM |
| B4 | 2 nM |
| B5 | 2.2 nM |
| B8 | 2.3 nM |
| B1 | 2.9 nM |

Biological target: T3, human TREM2 expressed on cells
Experiment: cell-based or functional assay
Remark: another data set of the same source

| Binder | EC50 viability, dendritic cells D558 | EC50 viability, dendritic cells D559 | EC50 viability, dendritic cells D560 | EC50 viability, macrophages D559 | EC50 viability, macrophages D560 | EC50 viability, macrophages D558 |
| --- | --- | --- | --- | --- | --- | --- |
| B10 | 0.152 nM | 0.244 nM | 0.178 nM | 0.194 nM | 0.154 nM |  |
| B1 | 4.19 nM | 6.16 nM | 4.47 nM | 18.3 nM | 31.8 nM | 1.24 nM |

Biological target: T1, human TREM2 Fc fusion (entire TREM2 …)
Experiment: BLI, Fab, monovalent
Remark: another data set of the same source
Method in brief: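 TREM2 Fc fusion antigen was loaded onto AHQ biosensors, with a 60 s baseline in assay buffer. The sensors were then exposed to 100 nM antibody Fab for monovalent binding. Data were fitted to a 1:1 model, and the assay ran at 25 °C.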

| Binder | Kd |
| --- | --- |
| B2 | 180 nM |
| B3 | 93.9 nM |

Biological target: T3, human TREM2 expressed on cells
Experiment: FACS, hTREM2 BW cells
Remark: another data set of the same source

| Binder | Bmax (MFI) | Kd |
| --- | --- | --- |
| B1 | 216000 MFI | 1.17 nM |

Biological target: T3, human TREM2 expressed on cells
Experiment: FACS, hTREM2 BW cells
Remark: another data set of the same source
Method in brief: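 BW5147.G.1.4 cells stably co-expressing human TREM2 and Dap12, 1×10⁵ cells/well, incubated with anti-TREM2 antibody 1 h on ice in PBS/2% FBS. Anti-human PE secondary 30 min on ice; flow cytometry, binding as mean fluorescence intensity.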

| Binder | cell binding (FOB) |
| --- | --- |
| B2 | 78 FOB |
| B3 | 83 FOB |

Biological target: T3, human TREM2 expressed on cells
Experiment: FACS, human DCs
Method in brief: as §1

| Binder | MFI |
| --- | --- |
| B2 | 26 MFI |
| B3 | 162 MFI |
| B1 | 194 MFI |

Biological target: T3, human TREM2 expressed on cells
Experiment: FACS, hTREM2 BW cells
Remark: another data set of the same source

| Binder | Kd |
| --- | --- |
| B10 | 1.12 nM |
| B4 | 2 nM |
| B8 | 2.3 nM |
| B6 | 2.63 nM |
| B7 | 1.24 nM |
